Measurements reported in patent US20180043014A1 (CELLDEX THERAPEUTICS, published 2018).

Target: T1, CG56972-ECD, recombinant human GPNMB extracellular domain (aa 23-480), GPNMB-V5His (human, UniProt Q14956 23-492)
T1 construct: Expressed in HEK293 cells; also called GPNMB-V5His immunogen; purified CG56972-ECD protein; not shown: The tag would matter only for the xV5 reagent, not for the anti-GPNMB antibodies
T1 sequence: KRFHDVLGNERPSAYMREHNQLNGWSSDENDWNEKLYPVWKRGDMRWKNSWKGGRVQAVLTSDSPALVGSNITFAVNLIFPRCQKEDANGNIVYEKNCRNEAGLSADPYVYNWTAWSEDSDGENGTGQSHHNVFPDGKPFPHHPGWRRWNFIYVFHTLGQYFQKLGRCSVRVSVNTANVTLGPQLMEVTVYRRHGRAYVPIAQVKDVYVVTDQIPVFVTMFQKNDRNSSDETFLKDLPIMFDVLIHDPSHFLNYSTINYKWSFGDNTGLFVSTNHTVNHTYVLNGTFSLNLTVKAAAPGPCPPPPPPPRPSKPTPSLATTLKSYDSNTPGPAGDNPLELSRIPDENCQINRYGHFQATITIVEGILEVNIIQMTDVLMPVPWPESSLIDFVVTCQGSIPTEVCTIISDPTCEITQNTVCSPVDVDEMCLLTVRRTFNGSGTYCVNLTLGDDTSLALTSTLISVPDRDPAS
Assay: method not stated; purified CG56972-ECD protein

Kd: 52 nM
B1: CR011, fully human monoclonal antibody Mab 1.15.1 (IgG2) (antibody, V domains shown)
VH: QVQLQESGPGLVKPSQTLSLTCTVSGGSISSFNYYWSWIRHHPGKGLEWIGYIYYSGSTYSNPSLKSRVTISVDTSKNQFSLTLSSVTAADTAVYYCARGYNWNYFDYWGQGTLVTVSS
VL: not shown
notes: The unconjugated IgG2 form was used in flow cytometry; also called CR011 (anti-GPNMB)
